The target in experiment [1] is T1, human CD40 on cells (human, UniProt P25942 21-277). The experiment in a line: cell-based or functional assay.
In experiment [2] the target is T2, CD40-human Fc (huFc) fusion protein (Creative BioMart) (human, UniProt P25942 21-193).
T2 construct: bought; also called CD40-huFc; not shown: human Fc
The experiment is described as follows: competition ELISA: antibody titrated into 1 µg/mL CD40-huFc, mixture added to plate coated with HA-tagged CD40L, bound CD40-huFc detected with HRP anti-human Fc; blocked ligand: CD40L. The source says: (§1) After development with TMB (3, 3′, 5, 5′-tetramethylbenzidine) substrate, the plates were read at OD₄₅₀.

Experiment [3] has as its target T2, CD40-human Fc (huFc) fusion protein …. The experiment is described as follows: ELISA: 1 µg/mL CD40-huFc with control huIgG1 on plate coated or not coated with HA-tagged CD40L, detection with HRP anti-human Fc.
Excerpt: as §1
A general note: ELISA stands for enzyme-linked immunosorbent assay.

Experiment [4] concerns the target T1, human CD40 on cells. The experiment in a line: cell-based or functional assay. This is another data set of the same source.
Experiment [5] addresses soluble form of the extracellular domain of human CD40 (Creative BioMart, cat #CD402221H) (human, UniProt P25942 21-193). The experiment is described as follows: SPR (BIAcore T200); antibody captured by anti-Fc; soluble CD40 injected. The protocol: (§2) CD40 binding kinetics was analyzed by BIAcore assay with a BIAcore T200 instrument. Briefly, a goat anti-mouse Fc antibody (Pierce, cat #31170) or goat anti-human Fc (Pierce, cat #31125) was immobilized on a CM5 sensor chip, followed by capture of the anti-CD40 antibodies on the test surface.
(SPR reads the build-up and loss of mass on a sensor chip optically.)

Experiment [6] addresses T3, soluble cynomolgus (cyno) CD40 (Creative BioMart, cat #CD40-8824C) (cynomolgus, UniProt G7PG38 21-193).
T3 construct: extracellular domain; also called Cynomolgus CD40
Described as above. The protocol: as §2

The target of experiment [7] is T4, Alexa Fluor 488-conjugated soluble human CD40 protein (human, UniProt P25942 21-193, limits assumed, Alexa Fluor 488 conjugate (sites not given)).
T4 construct: also called fluorochrome-conjugated human CD40
The experiment is described as follows: flow cytometry: antibody titrated into 1 µg/mL Alexa Fluor 488-conjugated soluble human CD40 on CD40L+ Jurkat cells; half-maximal enhancement of the binding of CD40 to cell-surface CD40L. For orientation: Flow cytometry measures light scatter and fluorescence of single cells or particles in a stream.

In experiment [8] the target is T2, CD40-human Fc (huFc) fusion protein …. The experiment in a line: ELISA: antibody titrated into 1 µg/mL CD40-huFc, mixture added to plate coated with HA-tagged CD40L, bound complex detected with HRP anti-human Fc; half-maximal enhancement of the signal of CD40-huFc on CD40L.
Excerpt: as §1

Experiment [9] has as its target T5, human FcγRI (CD64) on CHO cells (human, UniProt P12314 16-374).
T5 construct: whole, on cells
The experiment in a line: flow cytometry on CHO cells stably expressing human FcγRI (CD64), detection with fluorescence-conjugated anti-human F(ab')2 secondary antibody. The protocol: (§3) Increasing amounts of anti-CD40 human IgG₁ antibodies and their Fc variants were incubated with CHO cells stably expressing different human Fcγ receptors, including FcγRI (CD64), FcγRIIA (CD32a), FcγRIIB (CD32b), and FcγRIIIA (CD16) with either F or V polymorphism. The binding was detected with a fluorescence-conjugated anti-human F(ab′)2 specific secondary antibody (Jackson ImmunoResearch).

In experiment [10] the target is T6, human FcγRIIA (CD32a) on CHO cells (human, UniProt P12318 34-317).
T6 construct: whole, on cells
T6 sequence (looked up): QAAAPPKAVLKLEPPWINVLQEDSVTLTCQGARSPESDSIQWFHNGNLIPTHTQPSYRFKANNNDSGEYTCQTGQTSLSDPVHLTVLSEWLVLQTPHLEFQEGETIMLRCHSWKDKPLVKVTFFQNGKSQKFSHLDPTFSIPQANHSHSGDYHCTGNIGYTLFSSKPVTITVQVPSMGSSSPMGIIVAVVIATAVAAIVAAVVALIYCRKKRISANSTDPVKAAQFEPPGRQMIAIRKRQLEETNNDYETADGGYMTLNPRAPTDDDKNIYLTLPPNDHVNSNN
The experiment in a line: flow cytometry on CHO cells stably expressing human FcγRIIA (CD32a), detection with fluorescence-conjugated anti-human F(ab')2 secondary antibody. The protocol:
as §3

Experiment [11] concerns the target T7, human FcγRIIB (CD32b) on CHO cells (human, UniProt P31994 43-310).
T7 construct: whole, on cells
T7 sequence (looked up): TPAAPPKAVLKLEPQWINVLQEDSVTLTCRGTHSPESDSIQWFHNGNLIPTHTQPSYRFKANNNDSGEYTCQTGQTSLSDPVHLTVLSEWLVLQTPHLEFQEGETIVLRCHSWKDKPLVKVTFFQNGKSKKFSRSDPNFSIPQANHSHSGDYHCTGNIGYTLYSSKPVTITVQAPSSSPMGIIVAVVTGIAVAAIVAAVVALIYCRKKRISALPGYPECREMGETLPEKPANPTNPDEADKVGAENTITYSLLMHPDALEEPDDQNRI
The experiment in a line: flow cytometry on CHO cells stably expressing human FcγRIIB (CD32b), detection with fluorescence-conjugated anti-human F(ab')2 secondary antibody. The protocol: as §3

In experiment [12] the target is T8, human FcγRIIIA (CD16) with V polymorphism on CHO cells (human, UniProt P08637 17-254).
T8 construct: whole, on cells; V allotype; also called CD16V
The experiment is described as follows: flow cytometry on CHO cells stably expressing human FcγRIIIA (CD16V), detection with fluorescence-conjugated anti-human F(ab')2 secondary antibody. The protocol:
as §3

Experiment [13] deals with T9, human FcγRIIIA (CD16) with F polymorphism on CHO cells (human, UniProt P08637 17-254).
T9 construct: whole, on cells; also called CD16F
The experiment in a line: flow cytometry on CHO cells stably expressing human FcγRIIIA (CD16F), detection with fluorescence-conjugated anti-human F(ab')2 secondary antibody. The protocol:
as §3

Substitutions are numbered along the chain they refer to. Numbers in names are those of the source.

The Kd is the equilibrium constant for the complex coming apart. A high value points to weaker binding. As a reminder, the koff is a measure of how fast the partners let go of each other. Low readings indicate slow dissociation, high ones fast dissociation. Usually kon stands for a measure of how fast the partners come together. Broadly, the EC50 (read off the curve) is the concentration needed to bring the measured effect to its halfway point.

T5 sequence (P12314 16-374): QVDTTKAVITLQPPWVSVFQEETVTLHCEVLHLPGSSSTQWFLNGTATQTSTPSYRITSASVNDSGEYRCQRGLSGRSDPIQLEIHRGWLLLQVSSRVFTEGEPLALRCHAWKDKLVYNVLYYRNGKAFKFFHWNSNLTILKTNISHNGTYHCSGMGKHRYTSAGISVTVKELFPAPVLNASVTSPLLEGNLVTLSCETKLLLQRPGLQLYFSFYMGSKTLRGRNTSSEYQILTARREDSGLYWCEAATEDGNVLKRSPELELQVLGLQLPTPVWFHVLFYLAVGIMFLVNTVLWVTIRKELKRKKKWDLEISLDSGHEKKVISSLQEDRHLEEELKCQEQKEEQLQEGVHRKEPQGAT
T1 sequence (P25942 21-277 limits assumed): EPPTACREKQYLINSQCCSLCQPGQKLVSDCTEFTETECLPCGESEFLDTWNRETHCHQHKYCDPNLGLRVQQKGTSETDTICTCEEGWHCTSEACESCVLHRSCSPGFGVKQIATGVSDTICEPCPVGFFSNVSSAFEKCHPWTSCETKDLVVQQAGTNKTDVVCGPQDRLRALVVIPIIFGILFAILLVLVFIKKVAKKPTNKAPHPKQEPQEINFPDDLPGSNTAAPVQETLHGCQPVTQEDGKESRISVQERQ
T2 sequence (P25942 21-193 limits assumed): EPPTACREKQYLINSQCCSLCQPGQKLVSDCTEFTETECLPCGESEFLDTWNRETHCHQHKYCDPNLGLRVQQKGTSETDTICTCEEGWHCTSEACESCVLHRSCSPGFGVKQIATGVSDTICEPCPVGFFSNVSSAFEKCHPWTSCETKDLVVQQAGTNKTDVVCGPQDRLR
Chain of soluble form of the extracellular domain of human CD40 (Creative BioMart, cat #CD402221H) (P25942 21-193 limits assumed): as above
T8 sequence (P08637 17-254 F176V): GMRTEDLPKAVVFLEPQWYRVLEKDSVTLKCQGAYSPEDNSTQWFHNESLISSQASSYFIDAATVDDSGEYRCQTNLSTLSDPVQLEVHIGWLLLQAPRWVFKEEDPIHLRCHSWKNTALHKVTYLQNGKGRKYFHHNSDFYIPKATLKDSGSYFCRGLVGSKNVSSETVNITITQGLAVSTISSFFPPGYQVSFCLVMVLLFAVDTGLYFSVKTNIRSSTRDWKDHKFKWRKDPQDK
T4 sequence (P25942 21-193 limits assumed): as the sequence (P25942 21-193 limits assumed) above
T9 sequence (P08637 17-254): as the sequence (P08637 17-254 F176V) above, with V160F counted along it

B1: Humanized muAb8 #1 (antibody, V domains shown)
VH: EVQLVQSGAEVKKPGSSVKVSCKASGYTFTDYYINWVRQAPGQGLEWIGWIFPGSGSVYCNEQFKGRATLTVDRSTSTAYMELSSLRSEDTAVYFCASSLGKFAYWGQGTLVTVSS
VL: DIQMTQSPSSLSASVGDRVTITCKASQSVVTAVAWYQQKPGKSPKLLIYSASNRYTGVPSRFSGSGSGTDFTLTISSLQPEDFATYFCQQYSSYPYTFGGGTKVEIK
notes: human IgG1 constant region (natural variants D356E and L358M) and kappa light chain; also called huAb8-1
As to B1, in [1], the “Maximal activation (OD655) in HEK293 blue CD40 NFκB reporter cells” value (shortened to “Maximal activation (OD655)”) came to 0.45 OD655 and the “NFκB activation EC50 (SEAP, OD655) in HEK293 blue CD40 NFκB reporter cells” value (“NFκB activation EC50 (SEAP, OD655)” below) came to 0.14 µg/mL. The “IC50 (read off the curve)” value in [2] is approximately 0.3 µg/mL.

B2: Humanized muAb8 #3 (antibody, V domains shown)
VH: B1 VH with A68V, L70I, R74K, F95Y
VL: B1 VL
notes: human IgG1 constant region (natural variants D356E and L358M) and kappa light chain; also called huAb8-3
Turning to B2, in experiment [1], the “Maximal activation (OD655)” value turned out to be 0.46 OD655 and the “NFκB activation EC50 (SEAP, OD655)” value came to 0.07 µg/mL. In [2], the “IC50 (read off the curve)” value was approximately 0.3 µg/mL.

B3: HA-tagged CD40L (R&D Systems) (ligand)
chain: ENSFEMQKGDQNPQIAAHVISEASSKTTSVLQWAEKGYYTMSNNLVTLENGKQLTVKRQGLYYIYAQVTFCSNREASSQAPFIASLCLKSPGRFERILLRAANTHSSAKPCGQQSIHLGGVFELQPGASVFVNVTDPSQVSHGTGFTSFGLLKL
notes: bought; not shown: HA tag
As to B3, in experiment [3], the binding result was “binds”.

B4: Humanized muAb9 A2I (antibody, human IgG1, kappa)
heavy: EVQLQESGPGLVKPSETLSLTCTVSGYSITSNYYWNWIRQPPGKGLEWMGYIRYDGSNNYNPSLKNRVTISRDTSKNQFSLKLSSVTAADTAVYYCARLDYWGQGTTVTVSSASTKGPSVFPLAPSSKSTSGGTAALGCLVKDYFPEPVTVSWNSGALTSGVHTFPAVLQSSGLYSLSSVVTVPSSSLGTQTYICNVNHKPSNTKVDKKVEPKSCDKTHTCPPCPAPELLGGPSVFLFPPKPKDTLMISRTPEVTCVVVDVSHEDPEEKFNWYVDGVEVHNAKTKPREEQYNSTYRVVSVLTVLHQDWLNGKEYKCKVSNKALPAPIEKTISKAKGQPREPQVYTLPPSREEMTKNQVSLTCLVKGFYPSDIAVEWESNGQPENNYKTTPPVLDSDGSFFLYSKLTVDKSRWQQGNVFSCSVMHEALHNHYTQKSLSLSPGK
light: DIVMTQTPLSLSVTPGQPASISCRSSQSLENTNGNTFLNWYLQKPGQSPQLLIYRVSNRFSGVPDRFSGSGSGTDFTLKISRVEAEDVGVYYCLQVTHVPFTFGQGTKLEIKRTVAAPSVFIFPPSDEQLKSGTASVVCLLNNFYPREAKVQWKVDNALQSGNSQESVTEQDSKDSTYSLSSTLTLSKADYEKHKVYACEVTHQGLSSPVTKSFNRGEC
notes: human IgG1 V273E/kappa; also called huAb9 A2I; huAb9 A2I (huIgG1 V273E)
For the molecule B4, in experiment [4], the “NFκB activity EC50; HEK293 blue CD40 reporter cells co-cultured with CHO cells expressing CD16F” value is 0.39 nM, the “NFκB activity EC50; HEK293 blue CD40 reporter cells co-cultured with CHO cells expressing CD16V” value turned out to be 0.3 nM, the “NFκB activity EC50; HEK293 blue CD40 reporter cells co-cultured with CHO cells expressing CD32a” value was determined as 0.08 nM and the “NFκB activity EC50; HEK293 blue CD40 reporter cells co-cultured with CHO cells expressing CD32b” value is 0.07 nM. Also, in experiment [4], the “NFκB activity EC50; HEK293 blue CD40 reporter cells co-cultured with CHO cells expressing CD64” value was determined as 0.01 nM and the “NFκB activity EC50; HEK293 blue CD40 reporter cells co-cultured with FcγR negative CHO cells” value stood at 0.72 nM. In [5], this molecule showed a Kd of 170 nM, a koff of 0.22 s⁻¹ and a kon of 1.3e+06 M⁻¹ s⁻¹. In experiment [6], this molecule yielded a Kd of 150 nM and a koff of 0.25 s⁻¹. The “EC50 (read off the curve)” value in [7] was approximately 4 µg/mL. For the same molecule, in [8], the concentration for a half-maximal effect (EC50 (read off the curve)) is approximately 1 µg/mL.

B5: huAb9-5 human IgG1 V273E variant (antibody)
heavy: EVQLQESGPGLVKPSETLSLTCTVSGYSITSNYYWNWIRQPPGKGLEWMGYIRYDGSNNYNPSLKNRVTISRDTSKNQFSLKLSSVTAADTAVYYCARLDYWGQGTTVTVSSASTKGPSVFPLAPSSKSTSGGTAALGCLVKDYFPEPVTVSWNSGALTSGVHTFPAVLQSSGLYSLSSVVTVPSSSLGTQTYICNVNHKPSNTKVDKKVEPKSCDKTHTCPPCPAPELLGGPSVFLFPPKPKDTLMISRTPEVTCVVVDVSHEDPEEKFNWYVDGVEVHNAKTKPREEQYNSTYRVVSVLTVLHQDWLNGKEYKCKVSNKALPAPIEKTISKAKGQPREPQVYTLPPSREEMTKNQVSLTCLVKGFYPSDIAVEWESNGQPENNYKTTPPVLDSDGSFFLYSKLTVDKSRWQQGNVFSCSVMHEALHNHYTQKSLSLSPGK
light: B4 light with I2A
notes: also called huAb9-5 V273E
On to B5, for which the “EC50 (read off the curve)” value in experiment [9] was approximately 0.5 µg/mL. The binding result in experiment [10], in experiment [11] and in [12] was “binds” each time.

B6: huAb9-5 human IgG1 V273Y variant (antibody)
heavy: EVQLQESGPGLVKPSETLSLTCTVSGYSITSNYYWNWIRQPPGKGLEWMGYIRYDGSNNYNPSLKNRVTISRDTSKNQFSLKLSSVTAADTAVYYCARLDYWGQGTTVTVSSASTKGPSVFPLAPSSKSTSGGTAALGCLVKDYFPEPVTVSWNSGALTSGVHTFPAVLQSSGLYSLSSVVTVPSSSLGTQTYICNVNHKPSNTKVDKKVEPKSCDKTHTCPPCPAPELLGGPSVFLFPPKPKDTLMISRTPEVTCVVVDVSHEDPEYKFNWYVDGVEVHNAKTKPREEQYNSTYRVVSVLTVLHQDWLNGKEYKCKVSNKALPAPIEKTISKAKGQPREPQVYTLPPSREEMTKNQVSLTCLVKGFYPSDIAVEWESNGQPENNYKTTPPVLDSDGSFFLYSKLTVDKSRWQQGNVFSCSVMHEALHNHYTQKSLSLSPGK
light: B4 light with I2A
notes: also called huAb9-5 V273Y
B6: the “EC50 (read off the curve)” value in experiment [9] is approximately 0.4 µg/mL. Moreover, the binding result in [10] and in experiment [11] was “binds” each time.

B7: Humanized muAb9 #5 (antibody, human IgG1, kappa)
heavy: not shown
light: B4 light with I2A
notes: wild type human IgG1/kappa; also called huAb9-5; huAb9-5 with wild type huIgG1
Take B7: the “Maximal activation (OD655)” value in experiment [1] amounted to 0.67 OD655. For the same molecule, the “NFκB activation EC50 (SEAP, OD655)” value in experiment [1] turned out to be 1.13 µg/mL. Also, the “EC50 (read off the curve)” value was approximately 0.5 µg/mL in [9] and approximately 0.2 µg/mL in experiment [8]. For the same molecule, the binding result is “binds” in experiment [10], “no binding (tested: 100 µg/mL)” in experiment [11], “binds” in experiment [13] and “binds” in experiment [12].

B8: Humanized muAb9 A2V (antibody, human IgG1, kappa)
heavy: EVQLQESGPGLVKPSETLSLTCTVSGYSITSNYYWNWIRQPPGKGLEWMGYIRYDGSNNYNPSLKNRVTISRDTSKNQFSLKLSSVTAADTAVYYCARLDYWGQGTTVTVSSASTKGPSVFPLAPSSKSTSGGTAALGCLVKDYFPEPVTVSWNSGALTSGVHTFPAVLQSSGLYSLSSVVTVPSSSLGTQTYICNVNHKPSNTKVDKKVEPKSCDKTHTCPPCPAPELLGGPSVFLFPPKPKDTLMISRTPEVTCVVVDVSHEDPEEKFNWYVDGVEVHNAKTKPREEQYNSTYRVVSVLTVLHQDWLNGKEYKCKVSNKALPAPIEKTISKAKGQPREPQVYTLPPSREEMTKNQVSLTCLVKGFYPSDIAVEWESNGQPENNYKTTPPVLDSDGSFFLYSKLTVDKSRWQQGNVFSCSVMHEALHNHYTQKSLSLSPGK
light: B4 light with I2V
notes: human IgG1 V273E/kappa; also called huAb9 A2V
In experiment [5], B8 returned a Kd of 170 nM, a koff of 0.26 s⁻¹ and a kon of 1.5e+06 M⁻¹ s⁻¹. Moreover, in experiment [6], binding was put at a Kd of 140 nM, the koff stood at 0.27 s⁻¹ and the association rate constant (kon) is 1.9e+06 M⁻¹ s⁻¹.

Values taken from patent US20210277137A1 (AbbVie / Abbott, published 2021).
